The values that follow come from US20050048073A1, “Methods of determining west nile virus epitopes and method of using the same” (priority 2001, published 2005).

“And” between values parts separate entries of the source, which are not always exact repeats. Identical values can stand only once.

The target in experiment [1] is HLA B*07 (human). Briefly: T2B7 HLA stabilisation assay, flow cytometry, peptide at 200 ug/ml. In general terms: In flow cytometry, cells or beads pass a laser one at a time.
The target of experiment [2] is HLA B*07 (human). Briefly: T2B7 HLA stabilisation assay, flow cytometry, 10/20/200 ug/ml, four assays. As to conditions: for Binding results (total of four assays): scale: of 3 concentrations positive.

B1: WNVB7 0019 (peptide)
chain: RPQRHDEKTL
In experiment [1], B1 displayed an Avg. Fold Inc. @ 200 (fold over background) of 2.8 and an Avg. MFI 200 of 1640 MFI. In experiment [2], the Binding number (binding score) was 11 and the Binding results (total of four assays) (of 3 concentrations positive, in 1 assay) is 2. This molecule also yielded a Binding results (total of four assays) in experiment [2] (in 3 assays) of 3.

B2: WNVB7 0020 (peptide)
chain: SPHRVPNYNL
In experiment [1], B2 displayed an Avg. Fold Inc. @ 200 (fold over background) of 2.5 and an Avg. MFI 200 of 1610 MFI. In experiment [2], this molecule showed a Binding number (binding score) of 12. In addition, the Binding results (total of four assays) in experiment [2] (in 4 assays) is 3.

B3: WNVB7 3403 (peptide)
chain: PETPQGLAKI
B3: in experiment [1], the Avg. Fold Inc. @ 200 (fold over background) amounted to 1 and the Avg. MFI 200 amounted to 589 MFI. For the same molecule, the Binding number (binding score) in experiment [2] was determined as 0. The molecule further showed a Binding results (total of four assays) in experiment [2] (in 4 assays) of 0.

B4: WNVB7 0018 (peptide)
chain: VPGTKIAGML
Regarding B4, in experiment [1], the Avg. Fold Inc. @ 200 (fold over background) was found to be 1.7 and the Avg. MFI 200 was determined as 1090 MFI. Moreover, in experiment [2], the Binding number (binding score) worked out at 6; the Binding results (total of four assays) (of 3 concentrations positive, in 1 assay) was 3 and 2. In addition, in experiment [2] (in 2 assays), the Binding results (total of four assays) came out at 1.

B5: WNVB7 0024 (peptide)
chain: TPGLRCLNLD
In experiment [1], B5 came in with an Avg. Fold Inc. @ 200 (fold over background) of 1 and an Avg. MFI 200 of 850 MFI. Further, the Binding number (binding score) in experiment [2] amounted to 2. Also, in experiment [2] (in 2 assays), the Binding results (total of four assays) was 1.

B6: WNVB7 0023 (peptide)
chain: RPAADGRTVM
Regarding B6, in experiment [1], the Avg. Fold Inc. @ 200 (fold over background) came to 1.5 and the Avg. MFI 200 was 979 MFI. The same molecule gave a Binding number (binding score) in experiment [2] of 12. In addition, the Binding results (total of four assays) in experiment [2] (in 4 assays) is 3.

B7: WNVB7 3399 (peptide)
chain: PEDIDCWCTK
In experiment [1], B7 registered an Avg. Fold Inc. @ 200 (fold over background) of 1.1 and an Avg. MFI 200 of 990 MFI. In experiment [2], this molecule had a Binding number (binding score) of 1 and a Binding results (total of four assays) (of 3 concentrations positive, in 1 assay) of 1.
